Results published in patent US10280205B2, “Method for treating cancer with an activated T lymphocyte that selectively recognizes a cancer cell consisting of specific peptide” (immatics biotechnologies GmbH, priority 2015, dated 2019).

Biological target: HLA-A*02:01 (Homo sapiens, UniProt P04439, D140Y/D185E/D98H/E176V/E277Q/G131W/G231S/I119V/I121R/I166T/I218V/L300P/L318F/N151K/N90K/P208A/P217A/Q86G/Q94H/R138H/R169H/T345S)
Assay: MHC binding assay: UV-ligand exchange with beta2m ELISA (exchange yield)
Settings: binding to HLA-A*02:01, β2m ELISA
From the text: Candidate peptides for T cell based therapies according to the present invention were further tested for their MHC binding capacity (affinity). The individual peptide-MHC complexes were produced by UV-ligand exchange, where a UV-sensitive peptide is cleaved upon UV-irradiation, and exchanged with the peptide of interest as analyzed. Only peptide candidates that can effectively bind and stabilize the peptide-receptive MHC molecules prevent dissociation of the MHC complexes. To determine the yield of the exchange reaction, an ELISA was performed based on the detection of the light chain (β2m) of stabilized MHC complexes. The assay was performed as generally described in Rodenko et al. (Rodenko et al., 2006).
96 well MAXISorp plates (NUNC) were coated over night with 2 ug/ml streptavidin in PBS at room temperature, washed 4× and blocked for 1 h at 37° C. in 2% BSA containing blocking buffer. […] Peptide-MHC monomers of the UV-exchange reaction were diluted 100 fold in blocking buffer. Samples were incubated for 1h at 37° C., washed four times, incubated with 2 ug/ml HRP conjugated anti-β2m for 1h at 37° C., washed again and detected with TMB solution that is stopped with […]. Absorption was measured at 450 nm. Candidate peptides that show a high exchange yield (preferably higher than 50%, most preferred higher than 75%) are generally preferred for a generation and production of antibodies or fragments thereof, and/or T cell receptors or fragments thereof, as they show sufficient avidity to the MHC molecules and prevent dissociation of the MHC complexes.

| Substance | Peptide exchange (MHC class I binding score, peptide exchange yield) |
| --- | --- |
| 33 (VLLSLLEKV; listed as Homo sapiens) [compound 33] | “++” (≥20% = ++) |
| 34 (ILVEADSLWVV; listed as Homo sapiens) [compound 34] | “+++” (≥50 = +++) |
| 35 (KINDTIYEV; listed as Homo sapiens) [compound 35] | “+++” (≥50 = +++) |
| 39 (SVAPNLPAV; listed as Homo sapiens) [compound 39] | “+++” (≥50 = +++) |
| 40 (TLLVKVFSV; listed as Homo sapiens) [compound 40] | “+++” (≥50 = +++) |
| 41 (SLMPHIPGL; listed as Homo sapiens) [compound 41] | “+++” (≥50 = +++) |
| 42 (VLLQKIVSA; listed as Homo sapiens) [compound 42] | “+++” (≥50 = +++) |
| 43 (VLSSLEINI; listed as Homo sapiens) [compound 43] | “++” (≥20% = ++) |
| 44 (ILDPISSGFLL; listed as Homo sapiens) [compound 44] | “++” (≥20% = ++) |
| 45 (SLWQDIPDV; listed as Homo sapiens) [compound 45] | “+++” (≥50 = +++) |
| 46 (ILTEENIHL; listed as Homo sapiens) [compound 46] | “+++” (≥50 = +++) |
| 47 (ILLSVPLLVV; listed as Homo sapiens) [compound 47] | “++” (≥20% = ++) |
| 49 (YLPAVFEEV; listed as Homo sapiens) [compound 49] | “+++” (≥50 = +++) |
| 50 (SLSELEALM; listed as Homo sapiens) [compound 50] | “+++” (≥50 = +++) |
| 51 (LLPDLEFYV; listed as Homo sapiens) [compound 51] | “++++” (≥75% = ++++) |
| 52 (FLLAHGLGFLL; listed as Homo sapiens) [compound 52] | “++++” (≥75% = ++++) |
| 53 (KMIETDILQKV; listed as Homo sapiens) [compound 53] | “++++” (≥75% = ++++) |
| 54 (SLLEQGKEPWMV; listed as Homo sapiens) [compound 54] | “+++” (≥50 = +++) |
| 55 (SLLDLETLSL; listed as Homo sapiens) [compound 55] | “++++” (≥75% = ++++) |
| 57 (TLAELQPPVQL; listed as Homo sapiens) [compound 57] | “+++” (≥50 = +++) |
| 59 (IMEDIILTL; listed as Homo sapiens) [compound 59] | “+++” (≥50 = +++) |

| Substance | Peptide exchange (MHC class I binding score, peptide exchange yield) |
| --- | --- |
| 61 (FLQGYQLHL; listed as Homo sapiens) [compound 61] | “++++” (≥75% = ++++) |
| 62 (VLLDVSAGQLLM; listed as Homo sapiens) [compound 62] | “++++” (≥75% = ++++) |
| 63 (YLLPSGGSVTL; listed as Homo sapiens) [compound 63] | “++” (≥20% = ++) |
| 64 (YAAPGGLIGV; listed as Homo sapiens) [compound 64] | “++” (≥20% = ++) |
| 66 (FLDENIGGVAV; listed as Homo sapiens) [compound 66] | “+++” (≥50 = +++) |
| 67 (TLLAEALVTV; listed as Homo sapiens) [compound 67] | “+++” (≥50 = +++) |
| 68 (SLMELPRGLFL; listed as Homo sapiens) [compound 68] | “++++” (≥75% = ++++) |
| 69 (FQLDPSSGVLVTV; listed as Homo sapiens) [compound 69] | “+++” (≥50 = +++) |
| 70 (GLLDYPVGV; listed as Homo sapiens) [compound 70] | “+++” (≥50 = +++) |
| 71 (GILARIASV; listed as Homo sapiens) [compound 71] | “+++” (≥50 = +++) |
| 72 (SLLELDGINL; listed as Homo sapiens) [compound 72] | “+++” (≥50 = +++) |
| 73 (NIFDLQIYV; listed as Homo sapiens) [compound 73] | “+++” (≥50 = +++) |
| 74 (ALLDPEVLSIFV; listed as Homo sapiens) [compound 74] | “+++” (≥50 = +++) |
| 75 (GLLEVMVNL; listed as Homo sapiens) [compound 75] | “+++” (≥50 = +++) |
| 76 (ILIDSIYKV; listed as Homo sapiens) [compound 76] | “+++” (≥50 = +++) |
| 77 (ILVEADGAWVV; listed as Homo sapiens) [compound 77] | “++++” (≥75% = ++++) |
| 78 (SLFSSLEPQIQPV; listed as Homo sapiens) [compound 78] | “+++” (≥50 = +++) |
| 80 (FLYDNLVESL; listed as Homo sapiens) [compound 80] | “++” (≥20% = ++) |
| 81 (FLFSQLQYL; listed as Homo sapiens) [compound 81] | “++” (≥20% = ++) |
| 82 (FLSSVTYNL; listed as Homo sapiens) [compound 82] | “+++” (≥50 = +++) |

Second part, the substance after the results:

| Peptide exchange (MHC class I binding score, peptide exchange yield) | Substance |
| --- | --- |
| “+++” (≥50 = +++) | 83 (ILAPTVMMI; listed as Homo sapiens) [compound 83] |
| “++” (≥20% = ++) | 84 (VTFGEKLLGV; listed as Homo sapiens) [compound 84] |
| “+++” (≥50 = +++) | 85 (KMSELRVTL; listed as Homo sapiens) [compound 85] |
| “+++” (≥50 = +++) | 86 (NLIGKIENV; listed as Homo sapiens) [compound 86] |
| “++” (≥20% = ++) | 87 (ALPEAPAPLLPHIT; listed as Homo sapiens) [compound 87] |
| “+++” (≥50 = +++) | 88 (FLLVGDLMAV; listed as Homo sapiens) [compound 88] |
| “++++” (≥75% = ++++) | 89 (YILPTETIYV; listed as Homo sapiens) [compound 89] |
| “+++” (≥50 = +++) | 90 (TLLQIIETV; listed as Homo sapiens) [compound 90] |
| “++++” (≥75% = ++++) | 91 (IMQDFPAEIFL; listed as Homo sapiens) [compound 91] |
| “++” (≥20% = ++) | 92 (YLIPFTGIVGL; listed as Homo sapiens) [compound 92] |
| “++” (≥20% = ++) | 93 (LLQAIKLYL; listed as Homo sapiens) [compound 93] |
| “++” (≥20% = ++) | 94 (YLIDIKTIAI; listed as Homo sapiens) [compound 94] |
| “+++” (≥50 = +++) | 95 (SVIPQIQKV; listed as Homo sapiens) [compound 95] |
| “+++” (≥50 = +++) | 96 (YIFTDNPAAV; listed as Homo sapiens) [compound 96] |
| “+++” (≥50 = +++) | 97 (SLINGSFLV; listed as Homo sapiens) [compound 97] |
| “+++” (≥50 = +++) | 98 (LIIDQADIYL; listed as Homo sapiens) [compound 98] |
| “++” (≥20% = ++) | 99 (ALVSKGLATV; listed as Homo sapiens) [compound 99] |
| “++++” (≥75% = ++++) | 100 (YLLSTNAQL; listed as Homo sapiens) [compound 100] |
| “+++” (≥50 = +++) | 101 (ILVGGGALATV; listed as Homo sapiens) [compound 101] |
| “+++” (≥50 = +++) | 102 (YLFESEGLVL; listed as Homo sapiens) [compound 102] |
| “+++” (≥50 = +++) | 103 (TLAEEVVAL; listed as Homo sapiens) [compound 103] |
